Data taken from patent US20220227830A1, “QD DOSING OF GIP RECEPTOR AGONIST PEPTIDE COMPOUNDS AND USES THEREOF” (Takeda Pharmaceutical Company Limited, priority 2020, published 2022).
Starred links: 1 amine or outer side, 2 acyl side, 3 side chain; linkers in the order of their positions; H or OH if unused. Non-standard residues stand in square brackets, D forms with d. Groups on a side chain read outwards from the residue. No end group written: not given here. *: point of attachment. 2OEGgEgE‑C15DA = 2OEGgEgE-C15 diacid linker-lipid on the Lys side chain, O=C(O)CCCCCCCCCCCCCC(=O)N[C@@H](CCC(=O)N[C@@H](CCC(=O)NCCOCCOCC(=O)NCCOCCOCC(=O)*)C(=O)O)C(=O)O; GGEEE‑C15DA = Gly-Gly-Glu-Glu-Glu linker (GGEEE) joined to a C15 diacid lipid (C15DA), on the Lys side chain; C16 diacid = O=C(O)CCCCCCCCCCCCCCC(=O)*; C15 diacid = O=C(O)CCCCCCCCCCCCCC(=O)*; γGlu = O=C(O)[C@H](CCC(=O)[*:2])N[*:1]; NMeY = CN[C@@H](Cc1ccc(O)cc1)C(=O)O; AEEA = NCCOCCOCC(=O)O; Aib = CC(C)(N)C(=O)O

T1: full-length human GIPR with an N-terminal FLAG tag (human, UniProt P48546 22-466)
T1 sequence (looked up): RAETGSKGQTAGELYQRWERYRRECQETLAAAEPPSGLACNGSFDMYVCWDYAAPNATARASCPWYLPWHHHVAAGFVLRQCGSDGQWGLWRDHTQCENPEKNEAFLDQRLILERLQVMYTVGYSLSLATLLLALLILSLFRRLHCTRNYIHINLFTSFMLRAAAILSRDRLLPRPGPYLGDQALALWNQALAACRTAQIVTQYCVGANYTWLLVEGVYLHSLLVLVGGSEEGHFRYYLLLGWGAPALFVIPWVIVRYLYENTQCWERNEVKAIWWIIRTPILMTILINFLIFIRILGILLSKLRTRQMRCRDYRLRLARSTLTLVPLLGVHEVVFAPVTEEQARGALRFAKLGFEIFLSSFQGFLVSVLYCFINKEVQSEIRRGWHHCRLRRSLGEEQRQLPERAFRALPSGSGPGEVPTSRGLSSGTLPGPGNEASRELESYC


How the values were obtained:
[1] = target: T1, full-length human GIPR with an …; assay: cell-based or functional assay
[2] = target: full-length human GLP-1R with an N-terminal FLAG tag (human, UniProt P43220 24-463); assay: cell-based or functional assay

Binder	Human GIPR cAMP, HEK293T EC50 [1]	Human GLP1R cAMP HEK293T EC50 [2]
[NMeY][Aib]EGTFISDYSIALDR[Aib]KQ[Aib]DFVNWLLAQSPSSGAPPPS-NH2 (not fully specified (residue 18, N-terminus)) [Compound 106]	0.0005 nM	120 nM
[NMeY][Aib]EGTFISDYSI[Aib]LDR[Aib]AQ[Aib]K(2OEGgEgE‑C15DA)FVNWLLAQSPSSGAPPPS-NH2 (N-terminus assumed; SMILES CC[C@H](C)[C@H](NC(=O)[C@H](Cc1ccccc1)NC(=O)[C@@H](NC(=O)CNC(=O)[C@H](CCC(=O)O)NC(=O)C(C)(C)NC(=O)[C@H](Cc1ccc(O)cc1)NC)[C@@H](C)O)C(=O)N[C@@H](CO)C(=O)N[C@@H](CC(=O)O)C(=O)N[C@@H](Cc1ccc(O)cc1)C(=O)N[C@@H](CO)C(=O)N[C@H](C(=O)NC(C)(C)C(=O)N[C@@H](CC(C)C)C(=O)N[C@@H](CC(=O)O)C(=O)N[C@@H](CCCNC(=N)N)C(=O)NC(C)(C)C(=O)N[C@@H](C)C(=O)N[C@@H](CCC(N)=O)C(=O)NC(C)(C)C(=O)N[C@@H](CCCCNC(=O)COCCOCCNC(=O)COCCOCCNC(=O)CC[C@H](NC(=O)CC[C@H](NC(=O)CCCCCCCCCCCCCC(=O)O)C(=O)O)C(=O)O)C(=O)N[C@@H](Cc1ccccc1)C(=O)N[C@H](C(=O)N[C@@H](CC(N)=O)C(=O)N[C@@H](Cc1c[nH]c2ccccc12)C(=O)N[C@@H](CC(C)C)C(=O)N[C@@H](CC(C)C)C(=O)N[C@@H](C)C(=O)N[C@@H](CCC(N)=O)C(=O)N[C@@H](CO)C(=O)N1CCC[C@H]1C(=O)N[C@@H](CO)C(=O)N[C@@H](CO)C(=O)NCC(=O)N[C@@H](C)C(=O)N1CCC[C@H]1C(=O)N1CCC[C@H]1C(=O)N1CCC[C@H]1C(=O)N[C@@H](CO)C(N)=O)C(C)C)[C@@H](C)CC) [Compound 103]	0.0005 nM	148 nM
[NMeY][Aib]EGTFISDYSIAK([GGEEE-C15 diacid])DR[Aib]AQ[Aib]NFVNWLLAQRPSSGAPPPS-NH2 [Compound 99]	0.0002 nM	1000 nM
[NMeY][Aib]EGTFISDYSIALDR[Aib]AQ[Aib]DFVNWLLAK([AEEA-AEEA-γGlu-C15 diacid])SPSSG-NH2 (N-terminus assumed; SMILES CC[C@H](C)[C@H](NC(=O)[C@H](CO)NC(=O)[C@H](Cc1ccc(O)cc1)NC(=O)[C@H](CC(=O)O)NC(=O)[C@H](CO)NC(=O)[C@@H](NC(=O)[C@H](Cc1ccccc1)NC(=O)[C@@H](NC(=O)CNC(=O)[C@H](CCC(=O)O)NC(=O)C(C)(C)NC(=O)[C@H](Cc1ccc(O)cc1)NC)[C@@H](C)O)[C@@H](C)CC)C(=O)N[C@@H](C)C(=O)N[C@@H](CC(C)C)C(=O)N[C@@H](CC(=O)O)C(=O)N[C@@H](CCCNC(=N)N)C(=O)NC(C)(C)C(=O)N[C@@H](C)C(=O)N[C@@H](CCC(N)=O)C(=O)NC(C)(C)C(=O)N[C@@H](CC(=O)O)C(=O)N[C@@H](Cc1ccccc1)C(=O)N[C@H](C(=O)N[C@@H](CC(N)=O)C(=O)N[C@@H](Cc1c[nH]c2ccccc12)C(=O)N[C@@H](CC(C)C)C(=O)N[C@@H](CC(C)C)C(=O)N[C@@H](C)C(=O)N[C@@H](CCCCNC(=O)COCCOCCNC(=O)COCCOCCNC(=O)CC[C@H](NC(=O)CCCCCCCCCCCCCC(=O)O)C(=O)O)C(=O)N[C@@H](CO)C(=O)N1CCC[C@H]1C(=O)N[C@@H](CO)C(=O)N[C@@H](CO)C(=O)NCC(N)=O)C(C)C) [Compound 98]	0.0006 nM	1000 nM
[NMeY][Aib]EGTFISDYSI[Aib]K([AEEA-γGlu-γGlu-C15 diacid])DR[Aib]AQ[Aib]NFVNWLLAQRPSSGAPPPS-NH2 (N-terminus assumed; SMILES CC[C@H](C)[C@H](NC(=O)[C@H](Cc1ccccc1)NC(=O)[C@@H](NC(=O)CNC(=O)[C@H](CCC(=O)O)NC(=O)C(C)(C)NC(=O)[C@H](Cc1ccc(O)cc1)NC)[C@@H](C)O)C(=O)N[C@@H](CO)C(=O)N[C@@H](CC(=O)O)C(=O)N[C@@H](Cc1ccc(O)cc1)C(=O)N[C@@H](CO)C(=O)N[C@H](C(=O)NC(C)(C)C(=O)N[C@@H](CCCCNC(=O)COCCOCCNC(=O)CC[C@H](NC(=O)CC[C@H](NC(=O)CCCCCCCCCCCCCC(=O)O)C(=O)O)C(=O)O)C(=O)N[C@@H](CC(=O)O)C(=O)N[C@@H](CCCNC(=N)N)C(=O)NC(C)(C)C(=O)N[C@@H](C)C(=O)N[C@@H](CCC(N)=O)C(=O)NC(C)(C)C(=O)N[C@@H](CC(N)=O)C(=O)N[C@@H](Cc1ccccc1)C(=O)N[C@H](C(=O)N[C@@H](CC(N)=O)C(=O)N[C@@H](Cc1c[nH]c2ccccc12)C(=O)N[C@@H](CC(C)C)C(=O)N[C@@H](CC(C)C)C(=O)N[C@@H](C)C(=O)N[C@@H](CCC(N)=O)C(=O)N[C@@H](CCCNC(=N)N)C(=O)N1CCC[C@H]1C(=O)N[C@@H](CO)C(=O)N[C@@H](CO)C(=O)NCC(=O)N[C@@H](C)C(=O)N1CCC[C@H]1C(=O)N1CCC[C@H]1C(=O)N1CCC[C@H]1C(=O)N[C@@H](CO)C(N)=O)C(C)C)[C@@H](C)CC) [Compound 94]	0.0006 nM	501 nM
[NMeY][Aib]EGTFISDYSIAK([G5-γGlu-C15 diacid])DR[Aib]AQ[Aib]DFVNWLLAQRGGGGS-NH2 [Compound 97]	0.0002 nM	490 nM
[NMeY][Aib]EGTFISDYSI[Aib]K([GGEEE-C15 diacid])DR[Aib]AQ[Aib]NFVNWLLAQRPSSGAPPPS-NH2 [Compound 95]	0.0002 nM	537 nM
[NMeY][Aib]EGTFISDYSIALDRK([AEEA-AEEA-γGlu-C15 diacid])AQ[Aib]DFVNWLLAQRPSSGAPPPS-NH2 [Compound 104]	0.0004 nM	1000 nM
[NMeY][Aib]EGTFISDYSIALDR[Aib]K(GGEEE‑C15DA)Q[Aib]NFVNWLLAQSPSSGAPPPS-NH2 [Compound 105]	0.0003 nM	1000 nM
[NMeY][Aib]EGTFISDYSI[Aib]LDR[Aib]AQ[Aib]K(2OEGgE‑C15DA)FVNWLLAQSPSSGAPPPS-NH2 [Compound 102]	0.0005 nM	31.6 nM
[NMeY][Aib]EGTFISDYSI[Aib]LDR[Aib]AQ[Aib]DFVNWLLAQK(2OEGgE‑C15DA)PSSGAPPPS-NH2 [Compound 100]	0.0007 nM	1000 nM
[NMeY][Aib]EGTFISDYSIALDR[Aib]AQ[Aib]NFVNWLLAQK(2OEGgEgE‑C15DA)PSSGAPPPS-NH2 (N-terminus assumed; SMILES CC[C@H](C)[C@H](NC(=O)[C@H](CO)NC(=O)[C@H](Cc1ccc(O)cc1)NC(=O)[C@H](CC(=O)O)NC(=O)[C@H](CO)NC(=O)[C@@H](NC(=O)[C@H](Cc1ccccc1)NC(=O)[C@@H](NC(=O)CNC(=O)[C@H](CCC(=O)O)NC(=O)C(C)(C)NC(=O)[C@H](Cc1ccc(O)cc1)NC)[C@@H](C)O)[C@@H](C)CC)C(=O)N[C@@H](C)C(=O)N[C@@H](CC(C)C)C(=O)N[C@@H](CC(=O)O)C(=O)N[C@@H](CCCNC(=N)N)C(=O)NC(C)(C)C(=O)N[C@@H](C)C(=O)N[C@@H](CCC(N)=O)C(=O)NC(C)(C)C(=O)N[C@@H](CC(N)=O)C(=O)N[C@@H](Cc1ccccc1)C(=O)N[C@H](C(=O)N[C@@H](CC(N)=O)C(=O)N[C@@H](Cc1c[nH]c2ccccc12)C(=O)N[C@@H](CC(C)C)C(=O)N[C@@H](CC(C)C)C(=O)N[C@@H](C)C(=O)N[C@@H](CCC(N)=O)C(=O)N[C@@H](CCCCNC(=O)COCCOCCNC(=O)COCCOCCNC(=O)CC[C@H](NC(=O)CC[C@H](NC(=O)CCCCCCCCCCCCCC(=O)O)C(=O)O)C(=O)O)C(=O)N1CCC[C@H]1C(=O)N[C@@H](CO)C(=O)N[C@@H](CO)C(=O)NCC(=O)N[C@@H](C)C(=O)N1CCC[C@H]1C(=O)N1CCC[C@H]1C(=O)N1CCC[C@H]1C(=O)N[C@@H](CO)C(N)=O)C(C)C) [Compound 101]	0.0002 nM	550 nM
[NMeY][Aib]EGTFISDYSIALDRIHQ[Aib]K([AEEA-AEEA-γGlu-C16 diacid])FVNWLLAQK [Compound 9]	0.0002 nM	95.5 nM
[NMeY][Aib]EGTFISDYSIALDR[Aib]AQ[Aib]KFVNWLLAQRGGGGS-NH2 (not fully specified (residue 21)) [Compound 96]	0.0004 nM	89.1 nM
